Data on two molecules can be found in patent publication US20140234868A1, “USE FOR GLYCOLIPOPROTEIN GINTONIN, ISOLATED AND IDENTIFIED FROM GINSENG, AS A NATURAL MEDICAL-PLANT DERIVED LIGAND” (KONKUK UNIVERSITY INDUSTRIAL COOPERATION CORP., priority 2011, published 2014).

One experiment has as its target T1, LPA3 receptor (Homo sapiens, UniProt Q9UBY5).
T1 construct: host or cells: B103 rat neuroblastoma cells
T1 sequence (Q9UBY5 1-353): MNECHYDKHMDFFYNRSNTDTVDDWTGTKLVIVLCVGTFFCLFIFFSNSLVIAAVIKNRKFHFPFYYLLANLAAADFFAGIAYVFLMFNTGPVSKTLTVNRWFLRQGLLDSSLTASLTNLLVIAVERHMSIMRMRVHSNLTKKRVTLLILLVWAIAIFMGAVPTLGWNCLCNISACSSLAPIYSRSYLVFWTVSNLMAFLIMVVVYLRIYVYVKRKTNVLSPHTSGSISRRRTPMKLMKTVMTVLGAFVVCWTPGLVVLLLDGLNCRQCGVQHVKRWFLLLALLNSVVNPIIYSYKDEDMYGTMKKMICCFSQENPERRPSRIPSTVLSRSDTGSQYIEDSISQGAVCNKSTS
Briefly: Intracellular free Ca2+ (Fura-2AM) in LPA3-expressing B103 cells. The format is cell-based. An excerpt:
(§1) LPA family receptors are endogenous to cells of most organs. B103 rat neuroblastoma cells, known as LPA receptor-null cells (Valentine et al., Biochim Biophys Acta 1780. 597-605) were transiently transfected with a plasmid (vector) carrying one of genes coding for LPA1(edg-2), LPA2(edg-4), LPA3(edg-7), LPA4, LPA5 and LPA6 receptors or a plasmid carrying none of them (empty vector). Two or three days after transfection, the cells are suspended, and made permeable. Then, the permeable cells are treated with Fura-2AM, a fluorescent dye binding to calcium, and then with gintonin, followed by spectrofluorephotometry to examine whether gintonin induces an increase in intracellular free Ca^2+ level.
(§2) (1) preparing large quantities of plasmids carrying respective LPA family receptor genes and an empty plasmid carrying none of them through amplification and purification (maxi-preparation); (2) verifying the expression of LPA receptors wherein B103 cells are transfected with haematoglutin (HA)-tagged LPA receptors, and then subjected to Western blotting analysis using an anti-HA primary antibody and a horseradish peroxidase (HRP)-conjugated secondary antibody to develop a color; (3) verifying the expression of LPA receptors wherein B1-3 cells are transfected with haematoglutin (HA)-tagged LPA receptors, and then subjected to confocal laser microscopy using an anti-HA antibody and a fluorescence dye Cy3-conjugated secondary antibody; (4) transfecting the empty plasmid and each of the plasmids carrying LPA family receptor genes into B103 cells; (5) treating the transfected B103 cells with trypsin (0.05% trypsin with EDTA, w/v) 2-3 days post-transfection, to give a cell suspension; (6) culturing the suspended B103 cells with Fura-2AM (2.5 μM); and (7) treating the suspended B103 cells with gintonin and quantifying a change in intracellular free Ca^2+ level in a cuvette by spectrofluorephotometry using Fura-2AM.
(§3) Human LPA (lysophosphatidic acid) receptor subtypes, orphan GPCRs (G protein coupled receptors) and plasmids carrying GPCRs were purchased from Missouri S&T resource Center (www.cDNA.org).
(§4) The transient transfection of LPA receptor subtypes was carried out with the aid of Lipofectamine 2000 of Invitrogen. A plasmid (10.8 μg) carrying each LPA receptor (LPA1, LPA2, LPA3, LPA4, LPA5, and LPA6) was transfected into B103 cells grown in 10-cm dishes, and incubated for 2 days prior for use in experiments.
In this Example, gintonin, or ginsenoside Rb1 or Rg1 was examined for its ability to induce a transient increase of [Ca^2+]i in Fura-2AM-loaded B103 cells which were transfected with LPA receptors and in Fura-2AM-loaded B103 cells which were not transfected with LPA receptors. To this end, B103 cells (2˜4×10^6/ml) pre-treated with Fura-2AM were suspended in a 1.5 mM Ca^2+-containing buffer or Ca^2+-free buffer, and incubated 37° C. for 30 min, followed by analyzing intracellular calcium levels in the B103 cells in the presence of gintonin or ginsenosides.
Briefly, B103 cells (1˜2×10^6/ml) were mixed with 2.5 μM Fura 2-AM in a Ca^2+ buffer (pH 7.4) containing NaCl 120 mM, KCl 5 mM, MgCl2 1 mM, CaCl2 1.5 mM, glucose 10 mM, and HEPES 25 mM, and a Ca^2+ free buffer (pH 7.4) containing NaCl 120 mM, KCl 5 mM, MgCl2 1 mM, EGTA 0.2 mM, glucose 10 mM, and HEPES 25 mM at 37° C. for 30 min in water bath with shaking according to the Jørgensen method, and washed three times with Ca^2+ buffer or Ca^2+ free buffer to remove excess Fura-2AM.
[Ca^2+]i was estimated in Fura 2AM-loaded cells in suspension using an RF-5300PC intracellular ion measurement system (Shimadzu Corporation, Japan).
Briefly, Fura 2-AM loaded cells were diluted with an experimental medium to a final density of 2˜4×10^6 cells/mL, and transferred to polystyrene cuvettes (Elkay Ultra-VU). The cells were stirred using Teflon-coated magnets, and the cuvette housing was thermostatically controlled at 37° C. The excitation wavelengths were alternated between 340 and 380 nm under computer control. […]

In a further experiment the test system is endogenous CaCC. Briefly: Endogenous Ca2+-activated channel (CaCC) activation in Xenopus oocytes. It counts as cell-based, Xenopus laevis.
The target in a further experiment is LPA1 receptor (Homo sapiens, UniProt Q92633). Briefly: Intracellular free Ca2+ (Fura-2AM) in LPA1-expressing B103 cells. The format is cell-based. Further details: host or cells: B103 rat neuroblastoma cells.
LPA1 receptor, sequence (Q92633 whole entry): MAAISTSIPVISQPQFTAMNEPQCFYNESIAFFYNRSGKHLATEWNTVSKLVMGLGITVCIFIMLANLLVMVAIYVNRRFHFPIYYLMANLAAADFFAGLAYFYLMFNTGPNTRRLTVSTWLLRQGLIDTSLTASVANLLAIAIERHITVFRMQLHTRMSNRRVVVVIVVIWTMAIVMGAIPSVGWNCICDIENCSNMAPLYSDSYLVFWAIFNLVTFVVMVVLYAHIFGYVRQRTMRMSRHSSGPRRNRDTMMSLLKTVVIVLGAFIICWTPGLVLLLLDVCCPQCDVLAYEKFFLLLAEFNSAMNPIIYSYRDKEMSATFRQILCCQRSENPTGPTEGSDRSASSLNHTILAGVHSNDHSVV
Excerpt: as §1, §2, §3, §4
In this Example, gintonin, or ginsenoside Rb1 or Rg1 was examined for its ability to induce a transient increase of [Ca^2+]i in Fura-2AM-loaded B103 cells which were transfected with LPA receptors and in Fura-2AM-loaded B103 cells which were not transfected with LPA receptors. […]

Consider `Cc1noc(-c2ccc(CSCCC(=O)O)cc2)c1NC(=O)OC(C)c1ccccc1Cl` (centres unmarked) [Kil6425], for which the “effect on gintonin-induced intracellular calcium increase” value at LPA3 receptor (LPA3-expressing cells treated with antagonist) and at LPA1 receptor (LPA1-expressing cells treated with antagonist) was “did not increase in intracellular calcium level even in the presence of gintonin” each time. Moreover, in the experiment on endogenous CaCC (Kil6425 10 μM, U73122 1 μM, 2-APB 100 μM, BAPTA 100 μM 3 h), the “effect on gintonin-induced CaCC activation” value is “reduced gintonin-induced CaCC activation”.

B1: gintonin: ginseng-derived glycolipoprotein; structural protein of ginseng major latex-like protein (MLP151) and ribonuclease-like storage proteins; crude gintonin used in tests (protein)
chain 1: MGLTGKLICQTGIKSDGDVFHELFGTRPHHVPNITPANIQGCDLHEGEFGKVGSVVIWNYSIDGNAMIAKEEIVAIDEEDKSVTFKVVEGHLFEEFKSIVFSVHVDTKGEDNLVTWSIDYEKLNESVKDPTSYLDFLLSVTRDIEAHHLPK
chain 2: RSDYPWAMFALRLQWPAGFCEVNNACDTKSLLNTFTIHGLYPYNAKGTPALYCDGTAFDVNSVSDFLAEMHLAWPSHETNTEDIQFWEHEWKKHGRCSEALLKQTDYFRTALAFRKAFDIVGLLNQEGIYPNNDLYRPKMIKEAIKKHLNAVPEIDFTKNENSEYVLTDINVCVNQQATRFVDCPTDDATDDYRLKFVRLPSKMKFADPRTNSII
In general, EC50 refers to the concentration at which the effect is half-maximal. On to B1, for which the “transient increase of [Ca2+]i when extracellular Ca2+ was depleted” value with LPA3 receptor (Ca2+-free buffer containing 0.2 mM EGTA, LPA3-expressing cells) is “at a greatly lowered level”; with LPA1 receptor (Ca2+-free buffer containing 0.2 mM EGTA, LPA1-expressing cells) it was “at a greatly lowered level”. The 50% effective concentration (EC50) with LPA3 receptor (LPA3 receptor, B103 cells, read-out: EC50, LPA receptor-mediated intracellular calcium increase) was found to be 0.12 ± 0.01 nM; with LPA1 receptor (LPA1 receptor, B103 cells, read-out: EC50, LPA receptor-mediated intracellular calcium increase) it was 0.1 ± 0.02 nM. Moreover, the “increase in intracellular calcium level” value came out at 206.5 ± 11.2 µM with LPA3 receptor (gintonin 1 μg/ml, LPA3-expressing B103 cells) and 185.9 ± 12.8 µM with LPA1 receptor (gintonin 1 μg/ml, LPA1-expressing B103 cells). Further, the “increase of intracellular calcium level in co-existence with ginsenosides” value with LPA3 receptor (gintonin in the presence of ginsenoside Rb1 or Rg1) is on record as “induce an increase in intracellular calcium level by activating LPA receptors in spite of co-existence with the ginsenosides”. The CaCC activation result in the experiment on endogenous CaCC (gintonin 1 μg/ml, NMDA receptor-expressing Xenopus oocytes) is recorded as “increases CaCC”.
